Experimental data reported in publication PMC11570697, “2D4, a humanized monoclonal antibody targeting CD132, is a promising treatment for systemic lupus erythematosus” (Signal Transduction and Targeted Therapy, 2024).
Values belong to the molecule of their own block, whether it stands above or below them.

Legend:
[1] = biological target: human CD132 (common gamma chain cytokine receptor) (human) (UniProt P31785)
[2] = biological target: human CD132 (common gamma chain cytokine receptor) (human, UniProt P31785); experiment: cell-based or functional assay
Sequence of human CD132 (common gamma chain cytokine receptor) (P31785 23-262): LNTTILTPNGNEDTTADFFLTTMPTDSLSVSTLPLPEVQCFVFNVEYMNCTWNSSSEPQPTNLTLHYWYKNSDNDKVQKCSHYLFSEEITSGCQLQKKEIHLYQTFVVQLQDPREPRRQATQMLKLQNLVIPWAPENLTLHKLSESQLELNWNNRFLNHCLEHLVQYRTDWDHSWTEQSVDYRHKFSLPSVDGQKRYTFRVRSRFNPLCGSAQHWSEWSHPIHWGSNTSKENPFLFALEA

Sequence of human CD132 (common gamma chain cytokine receptor) (human) (P31785 23-262): as above

maximum percent inhibition of IL-2-induced STAT5 phosphorylation in CD3+ T cells of human PBMCs (gradient dilutions, up to 200 nM antibody) [1]: 100%
Molecule: REGN7257, pan CD132 blocking monoclonal antibody

IC50 of blocking human IL-21: IFN-γ secretion by NK92 cells (ELISA), relative to REGN7257 [2]: 10 fold
IC50 of blocking human IL-21: STAT3 phosphorylation in CD3+ T cells of human PBMCs (flow cytometry), relative to REGN7257 [2]: < 2 fold
B1: 2D4, humanized anti-CD132 monoclonal antibody (antibody, V domains shown)
VH: QVQLVQSGAEVKKPGSSVKVSCKTSGFNIEDIYLHWVRQAPGQGLEWMGRIDPANGKSNYDPKFQGRVTITADTSTSTAYMELSSLRSEDTAVYYCAALRFFGLDYWGQGTLVTVSS
VL: EIVLTQSPATLSLSPGERATLSCRATSSVSYMYWYQQKPGQAPELLIYRTSNLASGIPARFSGSGSGTDYTLTISSLEPEDFAVYYCQQWSSNPPTFGQGTKLEIK
